Results on 12 molecules are retold here after patent publication US11180770B2, “HPPD variants and methods of use” (BASF Agricultural Solutions Seed US LLC, priority 2017, dated 2021).

The series has as its system HPPD polypeptides. The series can be described thus: coupled HPPD activity assay: turnover and residual turnover in crude extracts. To be noted: for Residual turnover [%]: 100 μM Cmpd. 1, signal change with inhibitor divided by signal change without inhibitor; for Turnover: absence of Cmpd. 1, kinetic changes in absorbance (OD) at 320 nm, 30 min; for Turnover / Residual turnover: high substrate concentration; for Residual turnover: presence of 100 μM Cmpd. 1, changes in absorbance (OD) at 320 nm. It is filed as biochemical, Pseudomonas fluorescens.

B1: 70 (protein)
chain: MADLYENPMGLMGFEFIEFASPTPGTLEPIFEIMGFTKVATHRSKNVHLYRQGEINLILNNEPNSIASYFAAEHGPSVCGMAFRVKDSQKAYNRALELGAQPIHIDTGPMELNLPAIKGIGGAPLYLIDRFGEGSSIYDIDFVYLEGVERNPVGAGLKVIDHLTHNVYRGRMVYWANFYEKLFNFREARYFDIKGEYTGLTSKAMSAPDGMIKIPLNEESSKGAGQIEEFLMQFNGEGIQHVAFLTDDLVKTWDALKKIGMRFMTAPADSYYEMLEGRLPDHGEPVDQLQARGILLDGSSVEGDKRLLLQIFSEQLMGPVFFEFIQRKGDDGFGPHSFKVLFEQMERDQVRRGVLTAD
modifications: mutant HPPD polypeptide
In the case of B1, the “Residual turnover [%]” value is given as 71%, the Turnover amounted to 0.338 and the Residual turnover stood at 0.240.

B2: 7 (protein)
chain: MADLYENPMGLMGFEFIEFASPTPGTLEPIFEIMGFTKVATHRSKNVHLYRQGEINLILNNEPNSIASYFAAEHGPSVCGMAFRVKDSQKAYNRALELGAQPIHIDTGPMELNLPAIKGIGGAPLYLIDRFGEGSSIYDIDFVYLEGVERNPVGAGLKVIDHLTHNVYRGRMVYWANFYEKLFNFREARYFDIKGEYTGLTSKAMSAPDGMIRIPLNEESSKGAGQIEEFLMQFNGEGIQHVAFLTDDLVKTWDALKKIGMRFMTAPGDNYYEMLEGRLPDHGEPVDQLQARGILLDGSSVEGDKRLLLQIFSETLMGPVFFEFIQRKGDDGFGPDSFKVLFESIERDQVRRGVLTAD
modifications: mutant HPPD polypeptide
Consider B2, for which the “Residual turnover [%]” value was 42%, the Turnover turned out to be 0.149 and the Residual turnover stood at 0.063.

B3: 11 (protein)
chain: MADLYENPMGLMGFEFIEFASPTPGTLEPIFEIMGFTKVATHRSKNVHLYRQGEINLILNNEPNSIASYFAAEHGPSVCGMAFRVKDSQKAYNRALELGAQPIHIDTGPMELNLPAIKGIGGAPLYLIDRFGEGSSIYDIDFVYLEGVERNPVGAGLKVIDHLTHNVYRGRMVYWANFYEKLFNFREARYFDIKGEYTGLTSKAMSAPDGMIRIPLNEESSKGAGQIEEFLMQFNGEGIQHVAFLTDDLVKTWDALKKIGMRFMTAPPDTYYEMLEGRLPDHGEPVDQLQARGILLDGSSVEGDKRLLLQIFSETLMGPVFFEFIQRKGDDGFGPDSFKVLFESVERDQVRRGVLTAD
modifications: mutant HPPD polypeptide
With B3, the “Residual turnover [%]” value amounted to 44%, the Turnover is given as 0.160 and the Residual turnover is recorded as 0.071.

B4: 3 (protein)
chain: MADLYENPMGLMGFEFIEFASPTPGTLEPIFEIMGFTKVATHRSKNVHLYRQGEINLILNNEPNSIASYFAAEHGPSVCGMAFRVKDSQKAYNRALELGAQPIHIDTGPMELNLPAIKGIGGAPLYLIDRFGEGSSIYDIDFVYLEGVERNPVGAGLKVIDHLTHNVYRGRMVYWANFYEKLFNFREARYFDIKGEYTGLTSKAMSAPDGMIRIPLNEESSKGAGQIEEFLMQFNGEGIQHVAFLTDDLVKTWDALKKIGMRFMTAPADTYYEMLEGRLPDHGEPVDQLQARGILLDGSSVEGDKRLLLQIFSETLMGPVFFEFIQRKGDDGFGPDSFKVLFESIERDQVRRGVLTAD
modifications: mutant HPPD polypeptide
As for B4, the “Residual turnover [%]” value amounted to 64%, the Turnover amounted to 0.096 and the Residual turnover is reported as 0.061.

B5: 12 (protein)
chain: MADLYENPMGLMGFEFIEFASPTPGTLEPIFEIMGFTKVATHRSKNVHLYRQGEINLILNNEPNSIASYFAAEHGPSVCGMAFRVKDSQKAYNRALELGAQPIHIDTGPMELNLPAIKGIGGAPLYLIDRFGEGSSIYDIDFVYLEGVERNPVGAGLKVIDHLTHNVYRGRMVYWANFYEKLFNFREARYFDIKGEYTGLTSKAMSAPDGMIRIPLNEESSKGAGQIEEFLMQFNGEGIQHVAFLTDDLVKTWDALKKIGMRFMTAPADNYYEMLEGRLPDHGEPVDQLQARGILLDGSSVEGDKRLLLQIFSETLMGPVFFEFIQRKGDDGFGPDSFKVLFESVERDQVRRGVLTAD
modifications: mutant HPPD polypeptide
For the molecule B5, the “Residual turnover [%]” value is 50%, the Turnover amounted to 0.115 and the Residual turnover is on record as 0.058.

B6: 10 (protein)
chain: MADLYENPMGLMGFEFIEFASPTPGTLEPIFEIMGFTKVATHRSKNVHLYRQGEINLILNNEPNSIASYFAAEHGPSVCGMAFRVKDSQKAYNRALELGAQPIHIDTGPMELNLPAIKGIGGAPLYLIDRFGEGSSIYDIDFVYLEGVERNPVGAGLKVIDHLTHNVYRGRMVYWANFYEKLFNFREARYFDIKGEYTGLTSKAMSAPDGMIRIPLNEESSKGAGQIEEFLMQFNGEGIQHVAFLTDDLVKTWDALKKIGMRFMTAPGDTYYEMLEGRLPDHGEPVDQLQARGILLDGSSVEGDKRLLLQIFSETLMGPVFFEFIQRKGDDGFGPDSFKVLFESVERDQVRRGVLTAD
modifications: mutant HPPD polypeptide
Regarding B6, the “Residual turnover [%]” value is 56%, the Turnover worked out at 0.125 and the Residual turnover is reported as 0.070.

B7: 71 (protein)
chain: MADLYENPMGLMGFEFIEFASPTPGTLEPIFEIMGFTKVATHRSKNVHLYRQGEINLILNNEPNSIASYFAAEHGPSVCGMAFRVKDSQKAYNRALELGAQPIHIDTGPMELNLPAIKGIGGAPLYLIDRFGEGSSIYDIDFVYLEGVERNPVGAGLKVIDHLTHNVYRGRMVYWANFYEKLFNFREARYFDIKGEYTGLTSKAMSAPDGMIRILLNEESSKGAGQIEEFLMQFNGEGIQHVAFLTDDLVKTWDALKKIGMRFMTAPPDTYYEMLEGRLPDHGEPVDQLQARGILLDGSSVEGDKRLLLQIFSETLMGPVFFEFIQRKGDDGFGPFNFKELFESIERDQVRRGVLTAD
modifications: mutant HPPD polypeptide
For B7, the Turnover amounted to 0.044 and the Residual turnover is 0.022.

B8: 6 (protein)
chain: MADLYENPMGLMGFEFIEFASPTPGTLEPIFEIMGFTKVATHRSKNVHLYRQGEINLILNNEPNSIASYFAAEHGPSVCGMAFRVKDSQKAYNRALELGAQPIHIDTGPMELNLPAIKGIGGAPLYLIDRFGEGSSIYDIDFVYLEGVERNPVGAGLKVIDHLTHNVYRGRMVYWANFYEKLFNFREARYFDIKGEYTGLTSKAMSAPDGMIRIPLNEESSKGAGQIEEFLMQFNGEGIQHVAFLTDDLVKTWDALKKIGMRFMTAPADNYYEMLEGRLPDHGEPVDQLQARGILLDGSSVEGDKRLLLQIFSETLMGPVFFEFIQRKGDDGFGPDSFKVLFESIERDQVRRGVLTAD
modifications: mutant HPPD polypeptide
With B8, the “Residual turnover [%]” value was found to be 50%, the Turnover is given as 0.165 and the Residual turnover was found to be 0.082.

B9: 9 (protein)
chain: MADLYENPMGLMGFEFIEFASPTPGTLEPIFEIMGFTKVATHRSKNVHLYRQGEINLILNNEPNSIASYFAAEHGPSVCGMAFRVKDSQKAYNRALELGAQPIHIDTGPMELNLPAIKGIGGAPLYLIDRFGEGSSIYDIDFVYLEGVERNPVGAGLKVIDHLTHNVYRGRMVYWANFYEKLFNFREARYFDIKGEYTGLTSKAMSAPDGMIRIPLNEESSKGAGQIEEFLMQFNGEGIQHVAFLTDDLVKTWDALKKIGMRFMTAPADTYYEMLEGRLPDHGEPVDQLQARGILLDGSSVEGDKRLLLQIFSETLMGPVFFEFIQRKGDDGFGPDSFKVLFESVERDQVRRGVLTAD
modifications: mutant HPPD polypeptide
Take B9: the “Residual turnover [%]” value is 52%, the Turnover is listed as 0.102 and the Residual turnover is recorded as 0.053.

B10: 5 (protein)
chain: MADLYENPMGLMGFEFIEFASPTPGTLEPIFEIMGFTKVATHRSKNVHLYRQGEINLILNNEPNSIASYFAAEHGPSVCGMAFRVKDSQKAYNRALELGAQPIHIDTGPMELNLPAIKGIGGAPLYLIDRFGEGSSIYDIDFVYLEGVERNPVGAGLKVIDHLTHNVYRGRMVYWANFYEKLFNFREARYFDIKGEYTGLTSKAMSAPDGMIRIPLNEESSKGAGQIEEFLMQFNGEGIQHVAFLTDDLVKTWDALKKIGMRFMTAPPDTYYEMLEGRLPDHGEPVDQLQARGILLDGSSVEGDKRLLLQIFSETLMGPVFFEFIQRKGDDGFGPDSFKVLFESIERDQVRRGVLTAD
modifications: mutant HPPD polypeptide
Take B10: the “Residual turnover [%]” value is 38%, the Turnover is recorded as 0.157 and the Residual turnover came to 0.059.

B11: 8 (protein)
chain: MADLYENPMGLMGFEFIEFASPTPGTLEPIFEIMGFTKVATHRSKNVHLYRQGEINLILNNEPNSIASYFAAEHGPSVCGMAFRVKDSQKAYNRALELGAQPIHIDTGPMELNLPAIKGIGGAPLYLIDRFGEGSSIYDIDFVYLEGVERNPVGAGLKVIDHLTHNVYRGRMVYWANFYEKLFNFREARYFDIKGEYTGLTSKAMSAPDGMIRIPLNEESSKGAGQIEEFLMQFNGEGIQHVAFLTDDLVKTWDALKKIGMRFMTAPPDNYYEMLEGRLPDHGEPVDQLQARGILLDGSSVEGDKRLLLQIFSETLMGPVFFEFIQRKGDDGFGPDSFKVLFESIERDQVRRGVLTAD
modifications: mutant HPPD polypeptide
Consider B11, for which the “Residual turnover [%]” value is reported as 50%, the Turnover is 0.107 and the Residual turnover was 0.054.

B12: 4 (protein)
chain: MADLYENPMGLMGFEFIEFASPTPGTLEPIFEIMGFTKVATHRSKNVHLYRQGEINLILNNEPNSIASYFAAEHGPSVCGMAFRVKDSQKAYNRALELGAQPIHIDTGPMELNLPAIKGIGGAPLYLIDRFGEGSSIYDIDFVYLEGVERNPVGAGLKVIDHLTHNVYRGRMVYWANFYEKLFNFREARYFDIKGEYTGLTSKAMSAPDGMIRIPLNEESSKGAGQIEEFLMQFNGEGIQHVAFLTDDLVKTWDALKKIGMRFMTAPGDTYYEMLEGRLPDHGEPVDQLQARGILLDGSSVEGDKRLLLQIFSETLMGPVFFEFIQRKGDDGFGPDSFKVLFESIERDQVRRGVLTAD
modifications: mutant HPPD polypeptide
Take B12: the “Residual turnover [%]” value is reported as 44%, the Turnover is given as 0.126 and the Residual turnover is listed as 0.055.
